{
  "source": "paper PMC3188359",
  "about": "(Biochemistry, 2000)",
  "key": {"[1]": {"biological_target": "Bacillus stearothermophilus DnaB (replicative helicase) (Bacillus stearothermophilus NCA 1503) (UniProt Q9X4C9)", "experiment": "SEC"}, "SEC [2]": {"biological_target": "the molecule itself", "experiment": "SEC"}, "[3]": {"biological_target": "T1, Bacillus stearothermophilus DnaB (replicative helicase) (Bacillus stearothermophilus NCA 1503, UniProt Q9X4C9 1-454)", "T1 sequence (looked up)": "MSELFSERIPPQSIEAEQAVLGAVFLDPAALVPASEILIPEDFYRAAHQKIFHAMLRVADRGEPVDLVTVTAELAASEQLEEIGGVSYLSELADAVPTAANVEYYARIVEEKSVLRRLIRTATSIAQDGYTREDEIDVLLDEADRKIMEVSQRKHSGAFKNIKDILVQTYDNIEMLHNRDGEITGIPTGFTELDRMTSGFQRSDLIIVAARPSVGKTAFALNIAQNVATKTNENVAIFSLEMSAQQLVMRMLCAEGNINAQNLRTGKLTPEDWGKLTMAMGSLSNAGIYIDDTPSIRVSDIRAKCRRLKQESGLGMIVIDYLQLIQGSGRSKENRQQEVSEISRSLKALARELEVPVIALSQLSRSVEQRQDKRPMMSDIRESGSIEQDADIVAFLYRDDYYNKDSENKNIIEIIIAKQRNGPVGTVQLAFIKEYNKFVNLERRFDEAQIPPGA", "experiment": "SEC + AUC"}, "SEC [4]": {"biological_target": "the molecule itself", "experiment": "SEC", "remark": "listed apart in the source"}, "SEC [5]": {"biological_target": "the molecule itself", "experiment": "SEC", "remark": "listed apart in the source"}},
  "note": "Like-named read-outs stand apart in the source and are kept apart here.",
  "data": [
    {"molecule": "P16, C-terminal 16 kDa fragment of B. stearothermophilus DnaG (from UniProt Q9X4D0 451-597) (domain or fragment)", "values": [
      {"measurement": "stoichiometry N (P16 molecules per DnaB hexamer)", "setting": "[1]", "value": 3}
    ]},
    {"molecule": "P17, N-terminal 17 kDa fragment of B. stearothermophilus DnaB (domain or fragment, Bacillus stearothermophilus NCA 1503, UniProt Q9X4C9 1-154, looked up) MSELFSERIPPQSIEAEQAVLGAVFLDPAALVPASEILIPEDFYRAAHQKIFHAMLRVADRGEPVDLVTVTAELAASEQLEEIGGVSYLSELADAVPTAANVEYYARIVEEKSVLRRLIRTATSIAQDGYTREDEIDVLLDEADRKIMEVSQRK", "values": [
      {"measurement": "stoichiometry N", "setting": "SEC [2]", "value": 2}
    ]},
    {"molecule": "Bacillus stearothermophilus DnaG (primase) (enzyme, Bacillus stearothermophilus NCA 1503, UniProt Q9X4D0 1-597, looked up) MGHRIPEETIEAIRRGVDIVDVIGEYVQLKRQGRNYFGLCPFHGEKTPSFSVSPEKQIFHCFGCGAGGNAFTFLMDIEGIPFVEAAKRLAAKAGVDLSVYELDVRGRDDGQTDEAKAMTEAHALLKRFYHHLLVHTKEGQAALDYLQARGWTKETIDRFEIGYAPDAPDAAAKLLESHSFSLPVMEKAGLLTKKEDGRYVGRFRNRIMFPIHDHRGETVGFSGRLLGEGHPKYVNSPETPVFRKGAILYHFHAARVPIRKRQEALLVEGFADVISAAQAGIDYAIATMGTSLTEEQARILRPCDTITICYDGDRAGIEAAWAAAEQLSALGCRVKVASLPNGLDPDEYIRVYGGERFAGEAGCRRPLVAFKMAYLRRGKNLQHEGERLRYIDEALREIGKLSSPVEQDYYLRQLAEEFSLSLSALHEQLSRSQRERTKPREAPDGETARPMLAKKLLPAFQNAERLLLAHMMRSRDVALVVQERIGGRFNIEEHRALAAYIYAFYEEGHEADPGALISRIPGELQPLASDVSLLLIADDVSEQELEDYIRHVLNRPKWLMLKVKEQEKTEAERRKDFLTAARIAKEMIEMKKMLSSS", "values": [
      {"measurement": "stoichiometry N", "setting": "[3]", "value": "3 DnaG molecules per DnaB hexamer"}
    ]},
    {"molecule": "P33, C-terminal 33 kDa fragment of B. stearothermophilus DnaB (domain or fragment, Bacillus stearothermophilus NCA 1503, UniProt Q9X4C9 155-454, looked up) HSGAFKNIKDILVQTYDNIEMLHNRDGEITGIPTGFTELDRMTSGFQRSDLIIVAARPSVGKTAFALNIAQNVATKTNENVAIFSLEMSAQQLVMRMLCAEGNINAQNLRTGKLTPEDWGKLTMAMGSLSNAGIYIDDTPSIRVSDIRAKCRRLKQESGLGMIVIDYLQLIQGSGRSKENRQQEVSEISRSLKALARELEVPVIALSQLSRSVEQRQDKRPMMSDIRESGSIEQDADIVAFLYRDDYYNKDSENKNIIEIIIAKQRNGPVGTVQLAFIKEYNKFVNLERRFDEAQIPPGA", "values": [
      {"measurement": "stoichiometry N", "setting": "SEC [4]", "value": 2},
      {"measurement": "stoichiometry N", "setting": "SEC [5]", "value": 6}
    ]}
  ]
}
